{
  "source": "patent US20150291685A1",
  "about": "(AstraZeneca / MedImmune, published 2015)",
  "binders": {"B1": {"name": "mAb 2F4 (antibody, V domains shown)", "VH": "EVQLLESGGGLVQPGGSLRLSCAASGFTFSPYMMQWVRQAPGKGLEWVSSIWPSGGKTYYADSVKGRFTISRDNSKNTLYLQMNSLRAEDTAVYYCARVRRGGATDYWGQGTLVTVSS", "VL": "DIQMTQSPATLSVSPGERATLSCRASQSVSSNLGWYQQKPGQAPRLLIYGASTRATGIPTRFSGSGSGTEFTLTISSLQSEDFATYYCQQYQNWPLLTFGGGTKVEIK", "notes": "also called antibody 2F4; anti-IsdH mAb 2F4"}, "B2": {"name": "mAb 1C1 (antibody, V domains shown)", "VH": "EVQLLESGGGLVQPGGSLRLSCAASGFTFSRYFMGWVRQAPGKGLEWVSSIYSSGGYTSYADSVKGRFTISRDNSKNTLYLQMNSLRAEDTAVYYCARRWRDGTFDYWGQGTLVTVSS", "VL": "DIQMTQSPSSLSASIGDRVTISCRASQSVREYLNWYQQKPGKAPKLLIFAASSLQSGVPSRFSGSGSGTDFTLTISSLQPEDFATYYCQQSYSTRFTFGPGTKVDIK", "notes": "also called antibody 1C1"}, "B3": {"name": "mAb 23D6 (antibody, V domains shown)", "VH": "QVQLVESGGGVVQPGRSLRLSCAASVFTFSSYGMHWVRQAPGKGLEWVALIWFDGSNEYYADSVKGRFTISRDNSKNTLYLQMNSLRAEDTAVYYCARDRGGGYYYYGMDVWGQGTTVTVSS", "VL": "DIQMTQSPSSLSASVGDRVTITCRASQGIRNDLGWYQQKPGKAPKRLIYAASSLQSGVPSRFSGSGSGTEFTLTISSLQPEDFATYYCLQHNSYPYTFGQGTKLEIK", "notes": "also called anti-ClfA antibody 23D6"}, "B4": {"name": "anti-ClfA mAb 11H10 (antibody, V domains shown)", "VH": "EVQLLESGGGLVQPGGSLRLSCAASGFTFSSFAMSWVRQAPGKGLEWVSAISGSGGNTYYADSVKGRFTISRDNSKNTLYLQMNSLRAEDTAVYYCAKIAFDIWGQGTMVTVSS", "VL": "B3 VL with A50V, Y96F, Q100P, L104V, E105D"}},
  "key": {"[1]": {"target": "T1, S. aureus Iron regulated surface determinant H (IsdH) (Staphylococcus aureus, UniProt Q2FXJ2 41-864, limits assumed)", "T1 sequence (looked up)": "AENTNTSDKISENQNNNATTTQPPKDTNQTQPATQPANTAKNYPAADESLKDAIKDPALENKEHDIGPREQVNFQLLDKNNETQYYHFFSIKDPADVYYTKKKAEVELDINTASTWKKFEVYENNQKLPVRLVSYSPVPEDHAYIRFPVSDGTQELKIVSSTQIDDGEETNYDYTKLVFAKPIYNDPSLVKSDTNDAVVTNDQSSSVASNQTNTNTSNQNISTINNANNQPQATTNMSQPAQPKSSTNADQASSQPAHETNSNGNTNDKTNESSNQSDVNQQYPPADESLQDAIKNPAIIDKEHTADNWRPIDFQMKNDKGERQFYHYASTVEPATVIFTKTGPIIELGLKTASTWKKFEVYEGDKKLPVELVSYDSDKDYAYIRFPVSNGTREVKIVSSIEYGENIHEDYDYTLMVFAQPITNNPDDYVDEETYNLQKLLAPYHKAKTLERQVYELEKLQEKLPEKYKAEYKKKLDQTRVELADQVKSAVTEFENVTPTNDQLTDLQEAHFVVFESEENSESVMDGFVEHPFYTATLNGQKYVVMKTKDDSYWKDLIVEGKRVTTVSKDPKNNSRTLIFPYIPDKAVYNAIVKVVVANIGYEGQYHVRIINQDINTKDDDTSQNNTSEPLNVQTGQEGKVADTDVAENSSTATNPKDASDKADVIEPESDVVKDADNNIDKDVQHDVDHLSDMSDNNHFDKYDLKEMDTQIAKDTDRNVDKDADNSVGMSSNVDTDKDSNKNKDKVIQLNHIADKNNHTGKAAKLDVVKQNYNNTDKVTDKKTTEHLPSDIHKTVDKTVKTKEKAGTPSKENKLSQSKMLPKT", "assay": "hu_IgGFc capture assay, mean of three experiments"}, "Neat-2 subunit of IsdH [2]": {"target": "T2, Neat-2 subunit of IsdH (Staphylococcus aureus, UniProt Q2FXJ2 345-471)", "T2 construct": "domain: Neat-2; also called subunit Neat-2", "T2 sequence (looked up)": "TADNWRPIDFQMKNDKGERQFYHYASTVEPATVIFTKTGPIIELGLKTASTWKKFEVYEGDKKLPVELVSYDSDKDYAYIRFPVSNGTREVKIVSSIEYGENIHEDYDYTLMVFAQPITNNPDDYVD", "assay": "hu_IgGFc capture assay, mean of three experiments"}, "Neat-2 subunit of IsdH [3]": {"target": "T2, Neat-2 subunit of IsdH", "assay": "competition ELISA: haptoglobin (Hp) binding to Neat-2 of IsdH with rising antibody concentration"}, "Neat-1": {"target": "T3, Neat-1 (Staphylococcus aureus)", "T3 construct": "domain of IsdH; also called subunit Neat-1 on IsdH; NEAT1 motif of IsdH", "assay": "competition ELISA: haptoglobin (Hp) binding to Neat-1 of IsdH with rising antibody concentration"}, "[4]": {"target": "T4, S. aureus clumping factor protein ClfA (Staphylococcus aureus, UniProt Q2G015 221-559, limits assumed)", "T4 sequence (looked up)": "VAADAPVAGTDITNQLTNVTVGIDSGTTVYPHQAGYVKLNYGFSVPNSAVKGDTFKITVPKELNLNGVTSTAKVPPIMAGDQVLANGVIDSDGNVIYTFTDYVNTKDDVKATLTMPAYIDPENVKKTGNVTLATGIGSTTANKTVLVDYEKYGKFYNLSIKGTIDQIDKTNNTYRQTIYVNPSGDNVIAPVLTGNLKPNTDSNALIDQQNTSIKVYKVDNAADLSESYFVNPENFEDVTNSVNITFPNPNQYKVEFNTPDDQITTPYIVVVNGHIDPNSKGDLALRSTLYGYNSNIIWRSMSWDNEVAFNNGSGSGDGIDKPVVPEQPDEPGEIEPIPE", "assay": "inhibition of ClfA binding to immobilized fibrinogen; the curve reaches about 60-65 % inhibition [table]"}, "[5]": {"target": "T4, S. aureus clumping factor protein ClfA", "assay": "inhibition of ClfA binding to immobilized fibrinogen; the curve reaches about 55-62 % inhibition [table]"}},
  "note": "Where a chain is given by its changes, count along the chain named.",
  "data": [
    {"binder": "B1", "values": [
      {"measurement": "Kd", "setting": "[1]", "value": 3.66, "unit": "nM"},
      {"measurement": "Kd", "setting": "Neat-2 subunit of IsdH [2]", "value": 2.57, "unit": "nM"},
      {"measurement": "IC50 (read off the curve)", "setting": "Neat-2 subunit of IsdH [3]", "value": "~1", "unit": "µg/mL"}
    ]},
    {"binder": "B2", "values": [
      {"measurement": "IC50 (read off the curve)", "setting": "Neat-1", "value": "~3", "unit": "µg/mL"}
    ]},
    {"binder": "B3", "values": [
      {"measurement": "IC50", "setting": "[4]", "value": 1.92, "unit": "µg/mL"}
    ]},
    {"binder": "B4", "values": [
      {"measurement": "IC50", "setting": "[5]", "value": 0.871, "unit": "µg/mL"}
    ]}
  ]
}
